Test results published in publication PMC10397247.

Experiments:
[1] = biological target: T1, O2; assay: two-hybrid library CC0; details: mean of both orientations;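 note: natural log of median RNA to DNA barcode read ratio; higher means stronger binding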
T1 chain: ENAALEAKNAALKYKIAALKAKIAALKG

[2] = biological target: T2, O8; assay: two-hybrid library CC0; details: mean of both orientations;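 note: natural log of median RNA to DNA barcode read ratio; higher means stronger binding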
T2 chain: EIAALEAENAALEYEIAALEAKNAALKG

[3] = biological target: T3, O15; assay: two-hybrid library CC0; details: mean of both orientations;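 note: natural log of median RNA to DNA barcode read ratio; higher means stronger binding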
T3 chain: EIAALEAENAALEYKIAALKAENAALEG

[4] = biological target: T4, O14; assay: two-hybrid library CC0; details: mean of both orientations;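 note: natural log of median RNA to DNA barcode read ratio; higher means stronger binding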
T4 chain: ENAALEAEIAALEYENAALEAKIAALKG

[5] = biological target: T5, O6; assay: two-hybrid library CC0; details: mean of both orientations;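 note: natural log of median RNA to DNA barcode read ratio; higher means stronger binding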
T5 chain: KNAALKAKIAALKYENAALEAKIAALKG

[6] = biological target: T6, O5; assay: two-hybrid library CC0; details: mean of both orientations;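 note: natural log of median RNA to DNA barcode read ratio; higher means stronger binding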
T6 chain: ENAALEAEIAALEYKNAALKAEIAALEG

[7] = biological target: T7, O3; assay: two-hybrid library CC0; details: mean of both orientations
T7 chain: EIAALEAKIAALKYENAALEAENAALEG

[8] = biological target: T8, O16; assay: two-hybrid library CC0; details: mean of both orientations
T8 chain: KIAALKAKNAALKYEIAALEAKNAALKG

[9] = biological target: T9, O4; assay: two-hybrid library CC0; details: mean of both orientations
T9 chain: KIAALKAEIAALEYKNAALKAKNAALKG

[10] = biological target: T10, O9; assay: two-hybrid library CC0; details: mean of both orientations
T10 chain: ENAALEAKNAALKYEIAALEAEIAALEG

[11] = biological target: T11, O7; assay: two-hybrid library CC0; details: mean of both orientations
T11 chain: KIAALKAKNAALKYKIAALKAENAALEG

[12] = biological target: T12, O6; assay: two-hybrid library CCNG1
T12 chain: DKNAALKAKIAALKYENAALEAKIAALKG

[13] = biological target: T13, O5; assay: two-hybrid library CCNG1
T13 chain: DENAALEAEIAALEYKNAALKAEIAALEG

[14] = biological target: T14, O14; assay: two-hybrid library CCNG1
T14 chain: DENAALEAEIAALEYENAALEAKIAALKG

[15] = biological target: T15, O16; assay: two-hybrid library CCNG1
T15 chain: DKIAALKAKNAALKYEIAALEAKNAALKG

[16] = biological target: T16, O8; assay: two-hybrid library CCNG1
T16 chain: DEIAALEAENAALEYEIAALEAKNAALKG

[17] = biological target: T17, O7; assay: two-hybrid library CCNG1
T17 chain: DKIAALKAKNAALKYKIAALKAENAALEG

[18] = biological target: T18, O15; assay: two-hybrid library CCNG1
T18 chain: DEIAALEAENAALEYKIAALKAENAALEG

[19] = biological target: T19, O9; assay: two-hybrid library CCNG1
T19 chain: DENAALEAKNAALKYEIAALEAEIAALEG

[20] = biological target: T20, O4; assay: two-hybrid library CCNG1
T20 chain: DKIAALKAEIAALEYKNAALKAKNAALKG

[21] = biological target: T21, O2; assay: two-hybrid library CCNG1
T21 chain: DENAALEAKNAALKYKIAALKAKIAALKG

[22] = biological target: T22, O3; assay: two-hybrid library CCNG1
T22 chain: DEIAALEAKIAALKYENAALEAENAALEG

[23] = biological target: T23, P8SH; assay: two-hybrid library CCNG1
T23 chain: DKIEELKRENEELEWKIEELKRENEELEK

[24] = biological target: T24, 4H3632-bN; assay: two-hybrid library CCNG1
T24 chain: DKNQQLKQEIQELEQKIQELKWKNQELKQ

[25] = biological target: T25, 4H496-bN; assay: two-hybrid library CCNG1
T25 chain: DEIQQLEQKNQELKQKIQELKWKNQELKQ

[26] = biological target: T26, P1mSN; assay: two-hybrid library CCNG1
T26 chain: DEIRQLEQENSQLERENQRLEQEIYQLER

[27] = biological target: T27, P6A-bH; assay: two-hybrid library CCNG1
T27 chain: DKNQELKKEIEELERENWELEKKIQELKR

[28] = biological target: T28, P4A-bH; assay: two-hybrid library CCNG1
T28 chain: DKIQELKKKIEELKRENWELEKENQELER

[29] = biological target: T29, P7A-bH; assay: two-hybrid library CCNG1
T29 chain: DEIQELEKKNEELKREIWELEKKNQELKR

[30] = biological target: T30, P3A-bH; assay: two-hybrid library CCNG1
T30 chain: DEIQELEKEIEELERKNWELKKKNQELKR

[31] = biological target: T31, P8A-bH; assay: two-hybrid library CCNG1
T31 chain: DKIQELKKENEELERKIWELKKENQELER

[32] = biological target: T32, P5A-bH; assay: two-hybrid library CCNG1; details: mean of both orientations
T32 chain: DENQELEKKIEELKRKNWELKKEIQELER

[33] = biological target: T33, P9A-bH; assay: two-hybrid library CCNG1
T33 chain: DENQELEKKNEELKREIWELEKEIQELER

[34] = biological target: T34, P3A; assay: two-hybrid library CCNG1
T34 chain: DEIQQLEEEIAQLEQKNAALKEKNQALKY

[35] = biological target: T35, P8A; assay: two-hybrid library CCNG1
T35 chain: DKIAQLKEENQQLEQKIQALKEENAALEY

[36] = biological target: T36, P9A; assay: two-hybrid library CCNG1
T36 chain: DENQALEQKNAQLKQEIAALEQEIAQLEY

[37] = biological target: T37, P6A; assay: two-hybrid library CCNG1
T37 chain: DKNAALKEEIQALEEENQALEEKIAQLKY

[38] = biological target: T38, P7A; assay: two-hybrid library CCNG1
T38 chain: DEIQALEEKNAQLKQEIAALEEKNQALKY

[39] = biological target: T39, P4A; assay: two-hybrid library CCNG1
T39 chain: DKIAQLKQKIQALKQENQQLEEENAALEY

[40] = biological target: T40, P5A; assay: two-hybrid library CCNG1
T40 chain: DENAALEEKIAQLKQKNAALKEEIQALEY

[41] = biological target: T41, P9mS; assay: two-hybrid library CCNG1
T41 chain: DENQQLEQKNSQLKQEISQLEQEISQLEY

[42] = biological target: T42, P6mS; assay: two-hybrid library CCNG1
T42 chain: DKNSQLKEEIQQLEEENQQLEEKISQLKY

[43] = biological target: T43, P7mS; assay: two-hybrid library CCNG1
T43 chain: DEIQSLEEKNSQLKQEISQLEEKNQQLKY

[44] = biological target: T44, P8mS; assay: two-hybrid library CCNG1
T44 chain: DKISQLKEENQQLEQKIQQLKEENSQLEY

[45] = biological target: T45, P5mS; assay: two-hybrid library CCNG1
T45 chain: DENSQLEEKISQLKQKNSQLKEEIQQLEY

[46] = biological target: T46, 4H2944-bA; assay: two-hybrid library CCNG1
T46 chain: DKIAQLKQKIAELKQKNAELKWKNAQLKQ

[47] = biological target: T47, 4H48-bA; assay: two-hybrid library CCNG1
T47 chain: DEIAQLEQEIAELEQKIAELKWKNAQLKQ

[48] = biological target: T48, 4H342-bA; assay: two-hybrid library CCNG1
T48 chain: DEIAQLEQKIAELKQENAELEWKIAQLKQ

[49] = biological target: T49, 4H491-bA; assay: two-hybrid library CCNG1
T49 chain: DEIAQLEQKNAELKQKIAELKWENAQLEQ

[50] = biological target: T50, 4H2518-bH; assay: two-hybrid library CCNG1
T50 chain: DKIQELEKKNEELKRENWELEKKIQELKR

[51] = biological target: T51, 4H2585-bH; assay: two-hybrid library CCNG1
T51 chain: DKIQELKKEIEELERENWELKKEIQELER

[52] = biological target: T52, 4H932-bH; assay: two-hybrid library CCNG1
T52 chain: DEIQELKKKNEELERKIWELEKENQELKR

[53] = biological target: T53, 4H2931-bH; assay: two-hybrid library CCNG1
T53 chain: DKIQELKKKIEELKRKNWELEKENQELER

[54] = biological target: T54, 4H2760-bH; assay: two-hybrid library CCNG1
T54 chain: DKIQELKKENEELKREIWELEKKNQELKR

[55] = biological target: T55, 4H349-bH; assay: two-hybrid library CCNG1
T55 chain: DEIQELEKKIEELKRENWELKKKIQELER

[56] = biological target: T56, 4H56-bH; assay: two-hybrid library CCNG1
T56 chain: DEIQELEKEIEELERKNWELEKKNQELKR

[57] = biological target: T57, 4H3297-bH; assay: two-hybrid library CCNG1
T57 chain: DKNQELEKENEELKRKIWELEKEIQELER

[58] = biological target: T58, 4H235-bH; assay: two-hybrid library CCNG1
T58 chain: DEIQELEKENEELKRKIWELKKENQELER

[59] = biological target: T59, 4H2444-bH; assay: two-hybrid library CCNG1
T59 chain: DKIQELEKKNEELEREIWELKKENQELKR

[60] = biological target: T60, 4H2859-bH; assay: two-hybrid library CCNG1
T60 chain: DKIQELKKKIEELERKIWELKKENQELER

[61] = biological target: T61, 4H796-bH; assay: two-hybrid library CCNG1
T61 chain: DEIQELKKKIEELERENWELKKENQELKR

[62] = biological target: T62, 4H3041-bH; assay: two-hybrid library CCNG1
T62 chain: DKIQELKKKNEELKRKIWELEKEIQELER

[63] = biological target: T63, 4H264-bH; assay: two-hybrid library CCNG1
T63 chain: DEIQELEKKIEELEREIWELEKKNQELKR

[64] = biological target: T64, 4H3364-bH; assay: two-hybrid library CCNG1
T64 chain: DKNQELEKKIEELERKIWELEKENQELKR

[65] = biological target: T65, 4H3381-bH; assay: two-hybrid library CCNG1
T65 chain: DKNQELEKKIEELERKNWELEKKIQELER

[66] = biological target: T66, 4H730-bH; assay: two-hybrid library CCNG1
T66 chain: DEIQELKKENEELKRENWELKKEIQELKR

[67] = biological target: T67, 4H949-bH; assay: two-hybrid library CCNG1
T67 chain: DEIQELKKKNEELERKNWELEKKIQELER

ENAALEAEIAALEYENAALEAKIAALKG
interaction score [1]: -2.38
interaction score [2]: -2.58
interaction score [3]: -2.74
interaction score [4]: -2.52
interaction score [5]: 0.177
interaction score [6]: -0.24
interaction score [7]: -2.51
interaction score [8]: 0.961
interaction score [9]: -2.52
interaction score [10]: -2.64
interaction score [11]: -1.03

DENAALEAEIAALEYENAALEAKIAALKG
interaction score [12]: 0.213
interaction score [13]: 0.398
interaction score [14]: -2.21
interaction score [15]: 0.545
interaction score [16]: -2.34
interaction score [17]: 0.14
interaction score [18]: -1.64
interaction score [19]: -2.25
interaction score [20]: -1.11
interaction score [21]: -1.4
interaction score [22]: -1.94

DKIEELKRENEELEWKIEELKRENEELEK [P8SH]
interaction score [23]: -0.00526

DKNQQLKQEIQELEQKIQELKWKNQELKQ [4H3632-bN]
interaction score [24]: 1.05
interaction score [25]: -0.174
interaction score [26]: -0.649

DKIQELKKKNEELKRKNWELKKKIQELKR [P2A-bH]
interaction score [27]: -0.802
interaction score [28]: 0.539
interaction score [29]: -0.557
interaction score [30]: -1.95
interaction score [31]: 0.132
interaction score [32]: -1.23
interaction score [33]: -1.02

DEIQQLEEEIAQLEQKNAALKEKNQALKY [P3A]
interaction score [34]: -0.882
interaction score [35]: -0.435
interaction score [36]: 0.0927
interaction score [37]: -0.905
interaction score [38]: -0.23
interaction score [39]: 2.6
interaction score [40]: -0.901

DENSQLEEKISQLKQKNSQLKEEIQQLEY [P5mS]
interaction score [41]: -2.82
interaction score [42]: -0.081
interaction score [43]: -1.25
interaction score [44]: -1.17
interaction score [45]: -1.66

DKIAQLKQKIAELKQKNAELKWKNAQLKQ [4H2944-bA]
interaction score [46]: -0.797
interaction score [47]: -1.05
interaction score [48]: 1.77
interaction score [49]: -0.569

DEIQELEKENEELKRKIWELKKENQELER [4H235-bH]
interaction score [46]: -0.835
interaction score [50]: -0.135
interaction score [51]: -1.55
interaction score [52]: -0.443
interaction score [53]: -0.301
interaction score [54]: 1.12
interaction score [55]: 0.108
interaction score [56]: 0.0558
interaction score [57]: 0.0762
interaction score [58]: 0.982
interaction score [59]: 0.0109
interaction score [60]: 0.589
interaction score [61]: -0.693
interaction score [62]: 0.0126
interaction score [63]: -0.718
interaction score [64]: -0.442
interaction score [65]: 0
interaction score [66]: -0.176
interaction score [67]: -0.845
